In patent US20180135012A1:

T1: A2 domain of von Willebrand Factor (vWF-A2, recombinant), P04275
T1 chain: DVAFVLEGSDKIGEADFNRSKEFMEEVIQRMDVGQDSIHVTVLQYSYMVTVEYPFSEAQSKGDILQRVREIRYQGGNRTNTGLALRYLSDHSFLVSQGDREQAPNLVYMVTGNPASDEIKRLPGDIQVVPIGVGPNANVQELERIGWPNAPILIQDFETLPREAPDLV

B1: ADAMTS13 fused to the extracellular domain of GPA, expressed on K562 erythroleukemia cells (protein)
chain: AAGGILHLELLVAVGPDVFQAHQEDTERYVLTNLNIGAELLRDPSLGAQFRVHLVKMVILTEPEGAPNITANLTSSLLSVCGWSQTINPEDDTDPGHADLVLYITRFDLELPDGNRQVRGVTQLGGACSPTWSCLITEDTGFDLGVTIAHEIGHSFGLEHDGAPGSGCGPSGHVMASDGAAPRAGLAWSPCSRRQLLSLLSAGRARCVWDPPRPQPGSAGHPPDAQPGLYYSANEQCRVAFGPKAVACTFAREHLDMCQALSCHTDPLDQSSCSRLLVPLLDGTECGVEKWCSKGRCRSLVELTPIAAVHGRWSSWGPRSPCSRSCGGGVVTRRRQCNNPRPAFGGRACVGADLQAEMCNTQACEKTQLEFMSQQCARTDGQPLRSSPGGASFYHWGAAVPHSQGDALCRHMCRAIGESFIMKRGDSFLDGTRCMPSGPREDGTLSLCVSGSCRTFGCDGRMDSQQVWDRCQVCGGDNSTCSPRKGSFTAGRAREYVTFLTVTPNLTSVYIANHRPLFTHLAVRIGGRYVVAGKMSISPNTTYPSLLEDGRVEYRVALTEDRLPRLEEIRIWGPLQEDADIQVYRRYGEEYGNLTRPDITFTYFQPKPRQAWVWAAVRGPCSVSCGAGLRWVNYSCLDQARKELVETVQCQGSQQPPAWPEACVLEPCPPYWAVGDFGPCSASCGGGLRERPVRCVEAQGSLLKTLPPARCRAGAQQPAVALETCNPQPCPARWEVSEPSSCTSAGGAGLALENETCVPGADGLEAPVTEGPGSVDEKLPAPEPCVGMSCPPGWGHLDATSAGEKAPSPWGSIRTGAQAAHVWTPAAGSCSVSCGRGLMELRFLCMDSALRVPVQEELCGLASKPGSRREVCQAVPCPARWQYKLAACSVSCGRGVVRRILYCARAHGEDDGEEILLDTQCQGLPRPEPQEACSLEPCPPRWKVMSLGPCSASCGLGTARRSVACVQLDQGQDVEVDEAACAALVRPEASVPCLIADCTYRWHVGTWMECSVSCGDGIQRRRDTCLGPQAQAPVPADFCQHLPKPVTVRGCWAGPCVGQGTPSLVPHEEAAAPGRTTATPAGASLEWSQARGLLFSPAPQPRRLLPGPQENSVQSSACGRQHLEPTGTIDMRGPGQADCAVAIGRPLGEVVTLRVLESSLNCSAGDMLLLWGRLTWRKMCRKLLDMTFSSKTNTLVVRQRCGRPGGGVLLRYGSQLAPETFYRECDMQLFGPWGEIVSPSLSPATSNAGGCRLFINVAPHARIAIHALATNMGAGTEGANASYILIRDTHSLRTTAFHGQQVLYWESESSQAEMEFSEGFLKAQASLRGQYWTLQSWVPEMQDPQSWKGKEGTYPYDVPDYALSTTEVAMHTSTSSSVTKSYISSQTNDTHKRDTYAATPRAHEVSEISVRTVYPPEEETGERVQLAHHFSEPEITLIIFGVMAGVIGTILLISYGIRRLIKKSPSDVKPLPSPDTDVPLSSVEIENPETSDQ
B2: recombinant ADAMTS13 (protein)
chain: AAGGILHLELLVAVGPDVFQAHQEDTERYVLTNLNIGAELLRDPSLGAQFRVHLVKMVILTEPEGAPNITANLTSSLLSVCGWSQTINPEDDTDPGHADLVLYITRFDLELPDGNRQVRGVTQLGGACSPTWSCLITEDTGFDLGVTIAHEIGHSFGLEHDGAPGSGCGPSGHVMASDGAAPRAGLAWSPCSRRQLLSLLSAGRARCVWDPPRPQPGSAGHPPDAQPGLYYSANEQCRVAFGPKAVACTFAREHLDMCQALSCHTDPLDQSSCSRLLVPLLDGTECGVEKWCSKGRCRSLVELTPIAAVHGRWSSWGPRSPCSRSCGGGVVTRRRQCNNPRPAFGGRACVGADLQAEMCNTQACEKTQLEFMSQQCARTDGQPLRSSPGGASFYHWGAAVPHSQGDALCRHMCRAIGESFIMKRGDSFLDGTRCMPSGPREDGTLSLCVSGSCRTFGCDGRMDSQQVWDRCQVCGGDNSTCSPRKGSFTAGRAREYVTFLTVTPNLTSVYIANHRPLFTHLAVRIGGRYVVAGKMSISPNTTYPSLLEDGRVEYRVALTEDRLPRLEEIRIWGPLQEDADIQVYRRYGEEYGNLTRPDITFTYFQPKPRQAWVWAAVRGPCSVSCGAGLRWVNYSCLDQARKELVETVQCQGSQQPPAWPEACVLEPCPPYWAVGDFGPCSASCGGGLRERPVRCVEAQGSLLKTLPPARCRAGAQQPAVALETCNPQPCPARWEVSEPSSCTSAGGAGLALENETCVPGADGLEAPVTEGPGSVDEKLPAPEPCVGMSCPPGWGHLDATSAGEKAPSPWGSIRTGAQAAHVWTPAAGSCSVSCGRGLMELRFLCMDSALRVPVQEELCGLASKPGSRREVCQAVPCPARWQYKLAACSVSCGRGVVRRILYCARAHGEDDGEEILLDTQCQGLPRPEPQEACSLEPCPPRWKVMSLGPCSASCGLGTARRSVACVQLDQGQDVEVDEAACAALVRPEASVPCLIADCTYRWHVGTWMECSVSCGDGIQRRRDTCLGPQAQAPVPADFCQHLPKPVTVRGCWAGPCVGQGTPSLVPHEEAAAPGRTTATPAGASLEWSQARGLLFSPAPQPRRLLPGPQENSVQSSACGRQHLEPTGTIDMRGPGQADCAVAIGRPLGEVVTLRVLESSLNCSAGDMLLLWGRLTWRKMCRKLLDMTFSSKTNTLVVRQRCGRPGGGVLLRYGSQLAPETFYRECDMQLFGPWGEIVSPSLSPATSNAGGCRLFINVAPHARIAIHALATNMGAGTEGANASYILIRDTHSLRTTAFHGQQVLYWESESSQAEMEFSEGFLKAQASLRGQYWTLQSWVPEMQDPQSWKGKEGT

Target: T1, A2 domain of von Willebrand Factor …

| Protein | enzymatic cleavage of vWF subdomain A2 detected by Western blot |
| --- | --- |
| B1 | the cell-expressed ADAMTS13 (lane 4) appears more active than the recombinant ADAMTS13 (lane 2), despite the fact that there is 6× less cell-expressed ADAMTS13 (13ng) than recombinant ADAMTS13 (75 ng) in the assay |
| B2 | the cell-expressed ADAMTS13 (lane 4) appears more active than the recombinant ADAMTS13 (lane 2), despite the fact that there is 6× less cell-expressed ADAMTS13 (13ng) than recombinant ADAMTS13 (75 ng) in the assay |
